The values below are quoted from earlier work in publication PMC10764639.

For this data set, the target named is TLR4 (Homo sapiens) (UniProt O00206).
Sequence of UniProt O00206 (O00206 24-839): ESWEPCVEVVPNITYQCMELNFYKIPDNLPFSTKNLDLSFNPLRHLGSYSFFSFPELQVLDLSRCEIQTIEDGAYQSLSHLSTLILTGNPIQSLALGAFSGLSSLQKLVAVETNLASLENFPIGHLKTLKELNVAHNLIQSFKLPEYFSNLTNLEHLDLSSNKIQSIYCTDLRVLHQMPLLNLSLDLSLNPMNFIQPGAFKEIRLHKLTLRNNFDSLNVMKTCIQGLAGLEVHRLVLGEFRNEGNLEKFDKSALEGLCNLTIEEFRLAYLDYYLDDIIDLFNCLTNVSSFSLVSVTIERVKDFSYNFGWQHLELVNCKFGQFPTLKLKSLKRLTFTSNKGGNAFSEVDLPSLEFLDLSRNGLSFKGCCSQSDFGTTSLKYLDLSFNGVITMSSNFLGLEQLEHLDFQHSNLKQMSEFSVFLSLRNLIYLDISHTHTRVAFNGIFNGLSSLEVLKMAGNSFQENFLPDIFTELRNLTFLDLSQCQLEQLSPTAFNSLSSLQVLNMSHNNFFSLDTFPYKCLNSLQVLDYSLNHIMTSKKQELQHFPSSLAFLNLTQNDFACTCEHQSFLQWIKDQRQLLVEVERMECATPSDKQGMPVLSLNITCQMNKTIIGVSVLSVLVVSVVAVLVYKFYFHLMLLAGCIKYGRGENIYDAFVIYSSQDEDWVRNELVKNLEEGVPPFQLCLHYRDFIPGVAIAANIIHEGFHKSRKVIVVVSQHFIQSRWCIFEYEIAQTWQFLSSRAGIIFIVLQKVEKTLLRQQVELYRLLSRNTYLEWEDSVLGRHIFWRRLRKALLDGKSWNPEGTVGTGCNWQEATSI

Turning to HMGB1 (from UniProt P09429), the Kd – broadly, the constant that tells how readily two partners part at equilibrium – is 12 nM.
